# Molecular target: human plasminogen (human) (UniProt P00747)
substance,measurement,value
bovine urokinase-type plasminogen activator (u-PA) (from UniProt Q05589) (enzyme),u-PA activity (mPU/µg cell protein),4.9
